This note sets out measurements from paper PMC4618444, “Evaluation and directed evolution for thermostability improvement of a GH 13 thermostable α-glucosidase from Thermus thermophilus TC11” (BMC Biotechnology, 2015).

Substrate in data set [1]: O=[N+]([O-])c1ccc(O[C@H]2O[C@H](CO)[C@@H](O)[C@H](O)[C@H]2O)cc1
The experiment in a line: purified protein.

Substrate in data set [2]: OC[C@H]1O[C@@](CO)(O[C@H]2O[C@H](CO)[C@@H](O)[C@H](O)[C@H]2O)[C@@H](O)[C@@H]1O
As to the kind of experiment: glucose release, glucose oxidase assay. As to conditions: 90 °C, citric acid-sodium phosphate buffer pH 5.0. In kind it is biochemical, Thermus thermophilus.

Substrate in data set [3]: OC[C@H]1O[C@H](O[C@H]2O[C@H](CO)[C@@H](O)[C@H](O)[C@H]2O)[C@H](O)[C@@H](O)[C@@H]1O
As to the kind of experiment: glucose release, glucose oxidase assay. As to conditions: 90 °C, citric acid-sodium phosphate buffer pH 5.0. In kind it is biochemical, Thermus thermophilus.

Where [4] appears, read: optimal reaction conditions (90 °C, pH 5.0), substrate pNPG implied by context.
[5] abbreviates: 90 °C, citric acid-sodium phosphate buffer pH 5.0.

Residue numbers refer to the chain shown, from its start. Names may count otherwise.

B1: TtAG (Thermus thermophilus; Q10Y) (protein)
chain: MWWKEAVIYYVYPRSFQDTNGDGVADVEGVRRRLPYLKSLGVDAIWLSPFYKSPMKDFGYDLADYCDVDPIFGTLQDFDRLLEEAHALGLRVLVDLVPNHTSSEHPWFLESRASRNSPKRDWYIWKDPAPDGGPPNNWQSFFGGPAWTLDEATGQYYLHQFLPEQPDLNWRNPEVREALYEVMRFWLRRGVDGFRVDVLWLLAEDLLFKDEPGNPDWRPGMWDRGRHLHIFTEDQPETYAYVREMRQVLDEFSEPGRERVMVGEIYLPYPQLLRYYQAGCHLPFNFHLIFRGLPDWRPENLARIVEEYESLLTRWDWPNWVLGNHDQPRLASRLGEAQARVGAMLLFTLRGTPTWYYGDEIGMKNGEIPPEKVQDPAALRQKDRLGEHQLPPGRDPERTPMQWDDTPFAGFSTVEPWLPVNPDYKTRNVAAQENDPRSMLHLVRRLIALRKDPDLLYGAYRTYRAREGVYAYLRGEGWLVAINLTEKEKALELPRGGRVVLTTHLDREERVGERLLLRPDEGVVVRLD
Take B1: in data set [1] (setting [4]), the Km – broadly, the substrate concentration at which the rate is half of its maximum – is listed as 0.46 mM; the kcat (usually the number of substrate molecules converted per active site and unit of time at saturation) was 356.57 s⁻¹.

B2: TtAG (Thermus thermophilus) (protein)
chain: B1 chain with Y10Q
notes: trimer by DLS (184 kDa)
On to B2, for which the Michaelis constant (Km) is on record as 0.48 mM in data set [1] (setting [5]), 30.53 mM in data set [2] and 19.96 mM in data set [3]. Moreover, the catalytic constant (kcat) was 659 s⁻¹ in data set [1] (setting [5]), 74.6 s⁻¹ in data set [2] and 140 s⁻¹ in data set [3]. Further, the kcat/Km – broadly, the turnover number divided by the Michaelis constant – in data set [1] (setting [5]) was determined as 1.37e+06 M⁻¹ s⁻¹; in data set [2], 2460 M⁻¹ s⁻¹; in data set [3] it was 7020 M⁻¹ s⁻¹.
